Results from patent publication US20250353906A1 (FLAGSHIP PIONEERING INNOVATIONS VII, published 2025).
Numbering of substitutions follows the chain as printed. Names and notes keep the numbering of the source. One block for each binder: values may come before it.

Assays:
[1] = target: T1, recombinant His-tagged murine RAGE protein (ab276858 from Abcam) (mouse, UniProt Q62151 23-340, limits assumed); assay: BLI, ANDbody on anti-human IgG Fc biosensors, murine RAGE at 150 nM then murine Notch2 NRR at 150 nM
T1 construct: His tag; also called murine RAGE antigen
T1 sequence (Q62151 23-340 limits assumed): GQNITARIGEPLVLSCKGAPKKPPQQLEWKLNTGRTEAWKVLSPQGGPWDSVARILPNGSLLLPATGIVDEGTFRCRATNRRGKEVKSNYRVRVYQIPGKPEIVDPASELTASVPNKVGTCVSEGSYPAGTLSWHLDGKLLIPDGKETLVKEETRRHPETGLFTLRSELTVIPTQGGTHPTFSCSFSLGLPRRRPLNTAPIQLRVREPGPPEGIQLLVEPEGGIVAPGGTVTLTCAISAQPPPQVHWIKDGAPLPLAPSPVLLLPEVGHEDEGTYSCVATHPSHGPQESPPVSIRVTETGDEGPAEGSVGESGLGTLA
Description: To test simultaneous dual antigen binding of the Notch2/RAGE ANDbodies by BLI, PRO051, PRO052 and PRO053, along with monovalent parental antibody controls were immobilized on anti-human IgG Fc biosensors and dipped into the recombinant His-tagged murine RAGE protein at 150 nM, followed by a second association step into wells containing recombinant murine Notch2 NRR at 150 nM to measure dual antigen binding. The dissociation rate was then measured by dipping the biosensors into buffer.

[2] = target: T2, DSG1 stably expressed on HEK-BLUE IL-10 cells (HEKBLUE IL-10/DSG1) (human, UniProt Q02413 50-1049); assay: cell-based or functional assay
T2 sequence (looked up): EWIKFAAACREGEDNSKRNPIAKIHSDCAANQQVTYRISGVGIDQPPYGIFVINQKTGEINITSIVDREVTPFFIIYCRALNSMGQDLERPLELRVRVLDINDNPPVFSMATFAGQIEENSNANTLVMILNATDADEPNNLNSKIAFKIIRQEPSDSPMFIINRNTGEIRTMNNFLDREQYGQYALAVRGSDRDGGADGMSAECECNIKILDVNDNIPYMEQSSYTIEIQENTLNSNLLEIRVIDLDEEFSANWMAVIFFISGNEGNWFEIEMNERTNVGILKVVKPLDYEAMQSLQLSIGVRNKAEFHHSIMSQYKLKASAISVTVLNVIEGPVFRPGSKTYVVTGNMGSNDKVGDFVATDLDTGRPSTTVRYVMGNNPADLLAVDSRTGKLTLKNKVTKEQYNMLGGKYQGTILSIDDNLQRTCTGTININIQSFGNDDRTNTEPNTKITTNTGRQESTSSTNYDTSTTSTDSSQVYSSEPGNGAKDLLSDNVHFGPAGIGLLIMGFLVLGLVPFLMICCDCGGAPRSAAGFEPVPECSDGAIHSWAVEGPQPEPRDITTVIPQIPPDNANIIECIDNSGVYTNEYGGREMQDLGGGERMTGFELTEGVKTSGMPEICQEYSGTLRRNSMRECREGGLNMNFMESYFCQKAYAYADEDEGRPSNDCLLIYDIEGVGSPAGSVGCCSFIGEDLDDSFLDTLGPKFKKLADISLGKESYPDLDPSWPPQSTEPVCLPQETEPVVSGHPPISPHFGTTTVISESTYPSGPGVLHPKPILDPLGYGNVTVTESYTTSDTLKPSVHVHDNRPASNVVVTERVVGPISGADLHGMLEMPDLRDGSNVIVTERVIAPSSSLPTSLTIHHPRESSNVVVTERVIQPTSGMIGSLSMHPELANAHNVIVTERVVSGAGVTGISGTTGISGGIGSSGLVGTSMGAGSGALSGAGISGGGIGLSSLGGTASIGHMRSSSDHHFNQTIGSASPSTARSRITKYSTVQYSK

[3] = target: T3, recombinant His-tagged human IL-10Ra (Creative Biomart) (human, UniProt Q13651 22-235); assay: ELISA on coated His-tagged human IL-10Ra, serial dilution from 30 µg/mL
T3 construct: His tag; also called IL-10 receptor alpha
T3 sequence (looked up): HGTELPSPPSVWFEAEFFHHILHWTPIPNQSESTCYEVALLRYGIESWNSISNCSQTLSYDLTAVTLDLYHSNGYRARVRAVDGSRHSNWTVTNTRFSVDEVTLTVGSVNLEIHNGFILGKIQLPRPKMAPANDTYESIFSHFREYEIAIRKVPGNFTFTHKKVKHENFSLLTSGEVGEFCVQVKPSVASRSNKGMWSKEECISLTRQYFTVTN
Description: To test the binding of the IL-10/anti-DSG1 ANDbodies to IL-10 receptor alpha (IL-10Ra) by ELISA, recombinant His-tagged human IL-10Ra (Creative Biomart) was coated on NUNC-IMMUNO™ MAXISORP™ ELISA plates at 1 μg/mL concentration overnight. The next day, coated antigen was removed and the wells were blocked with 1% IgG-free BSA followed by incubation with 11 three-fold serially diluted anti-IL-10/anti-DSG1 ANDbodies (as provided above) with a starting concentration of 30 μg/mL. Bound antibody was detected with peroxidase-conjugated anti-human IgG antibodies with TMB and acid stop reagents.

B1: PRO052 (bispecific antibody)
heavy 1: not shown
light 1: DIQMTQSPSSLSASVGDRVTITCRASQSNRRFLAWYQQKPGKAPKLLIYGASSRASGVPSRFSGSGSGTDFTLTISSLQPEDFATYYCQQYYISPLTFGQGTKVEIKRTVAAPSVFIFPPSDEQLKSGTASVVCLLNNFYPREAKVQWKVDNALQSGNSQESVTEQDSKDSTYSLSSTLTLSKADYEKHKVYACEVTHQGLSSPVTKSFNRGEC
heavy 2: not shown
light 2: DIQMTQSPSSLSASVGDRVTITCRASQDVGIYVNWFQQKPGKAPRRLIYRATNLADGVPSRFSGSRSGTDFTLTISSLQPEDFATYYCLEFDEHPLTFGGGTKVEIKRTVAAPSVFIFPPSDEQLKSGTASVVCLLNNFYPREAKVQWKVDNALQSGNSQESVTEQDSKDSTYSLSSTLTLSKADYEKHKVYACEVTHQGLSSPVTKSFNRGEC
notes: Made by controlled Fab arm exchange from PRO035 (K409R) and PRO002 (F405L); also called Notch2/RAGE ANDbody PRO052; copies: 1 + 1 + 1 + 1
- binding result [1]: binds

B4: PRO058 (other)
heavy: EVQLVESGGGLVQPGRSLRLSCAASGFTFDDYAMHWVRQAPGKGLEWVSGISWNSGSIDYADSVKGRFTISRDNAKNSLYLQMNSLRVEDTALYYCAKDGSRVFGVGGGFDFWGQGTMVTVSSASTKGPSVFPLAPSSKSTSGGTAALGCLVKDYFPEPVTVSWNSGALTSGVHTFPAVLQSSGLYSLSSVVTVPSSSLGTQTYICNVNHKPSNTKVDKKVEPKSCDKTHTCPPCPAPEAAGGPSVFLFPPKPKDTLMISRTPEVTCVVVDVSHEDPEVKFNWYVDGVEVHNAKTKPREEQYNSTYRVVSVLTVLHQDWLNGKEYKCKVSNKALGAPIEKTISKAKGQPREPQVYTLPPSRDELTKNQVKLTCLVKGFYPSDIAVEWESNGQPENNYKTTPPVLDSDGSFFLYSSLTVDKSRWQQGNVFSCSVMHEALHNHYTQKSLSLSPG
light: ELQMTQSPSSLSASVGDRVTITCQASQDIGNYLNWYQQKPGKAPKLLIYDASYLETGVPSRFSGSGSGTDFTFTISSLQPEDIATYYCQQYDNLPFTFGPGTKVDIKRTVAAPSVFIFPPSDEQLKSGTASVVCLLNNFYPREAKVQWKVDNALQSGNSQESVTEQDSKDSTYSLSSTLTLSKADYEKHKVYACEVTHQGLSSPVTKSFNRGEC
chain: SPGQGTQSENSCTHFPGNLPNMLRDLRDAFSRVKTFFQMKDQLDNLLLKESLLEDFKGYLGCQALSEMIQFYLEEVMPQAENQDPDIKAHVNSLGENLKTLRLRLRRCHRFLPCENGGGSGGKSKAVEQVKNAFNKLQEKGIYKAMSEFDIFINYIEAYMTMKIRNGGGGSGGGGSDKTHTCPPCPAPEAAGGPSVFLFPPKPKDTLMISRTPEVTCVVVDVSHEDPEVKFNWYVDGVEVHNAKTKPREEQYNSTYRVVSVLTVLHQDWLNGKEYKCKVSNKALGAPIEKTISKAKGQPREPQVYTLPPSRDELTKNQVSLTCLVSGFYPSDIAVEWESNGQPENNYKTTPPVLDSDGSFKLYSKLTVDKSRWQQGNVFSCSVMHEALHNRFTQKSLSLSPG
- increase in potency of IL-10 signaling (SEAP, HEK-BLUE IL-10 cells) when DSG1 was expressed on the target cells [2]: ~15 fold

Continued, values first:

- binding result [1]: binds
B2: PRO051 (bispecific antibody)
heavy 1: not shown
light 1: not shown
heavy 2: not shown
light 2: B1 light 2
notes: Made by controlled Fab arm exchange from PRO034 (K409R) and PRO002 (F405L); Signal peptides left out as for the parents; also called Notch2/RAGE ANDbody PRO051; RAGE-targeting ANDbody; copies: 1 + 1 + 1 + 1

- binding result [1]: binds
B3: PRO053 (bispecific antibody)
heavy 1: not shown
light 1: B1 light 1 with N29V, R31S, G50R, S53I, L96W
heavy 2: not shown
light 2: B1 light 2
notes: Made by controlled Fab arm exchange from PRO036 (K409R) and PRO002 (F405L); also called Notch2/RAGE ANDbody PRO053; copies: 1 + 1 + 1 + 1

- binding result [3]: binds
B5: IL-10 Fc (Creative Biomart IL10-326H) (Fc fusion, human, UniProt P22301 19-178, looked up)
chain: SPGQGTQSENSCTHFPGNLPNMLRDLRDAFSRVKTFFQMKDQLDNLLLKESLLEDFKGYLGCQALSEMIQFYLEEVMPQAENQDPDIKAHVNSLGENLKTLRLRLRRCHRFLPCENKSKAVEQVKNAFNKLQEKGIYKAMSEFDIFINYIEAYMTMKIRN
notes: Bought reagent; also called positive control IL-10 Fc; hIL-10 Fc fusion; not shown: human Fc domain
